The record followed here is US20150182631A1, “SYSTEM FOR […]-BASED ACTIVE INGREDIENTS” (Centre National De La Recherche Scientifique-CNRS, priority 2012, published 2015).

A short description of series [1]: Confinement of fluorescein in the lectin cavity. The following applies: 4 days at ambient temperature, free fluorescein eliminated again. The method, then:
The confinement experiments are carried out by incubating the wild-type protein (XCL) or the mutants (A38C) with the molecule to be tested. In order to carry out the control experiments with the mutant A38C, an oxidation step is carried out in the presence of GSSG in a phosphate buffer 50 mM, 100 mM NaCl, pH 7.2, OVN. The GSSG is then eliminated on a PD-10 sephadex G-25M column (GE Healthcare) pre-balanced in a phosphate buffer 50 mM, 100 mM NaCl, pH 8.5. The eluate is concentred at 1 ml on Vivaspin 15R 30,000 MWCO (Sartorius stedim). A batch of A38C is reduced to TCEP (under argon) with adding of NaOH for a final pH of 8.5. […] The quantity of fluorescein is measured by using an absorption coefficient of e511 nm=75,000 cm^−1 M^−1. The concentrations of XCL and of A38C after the confinement are calculated with e278 nm=[…]. The percentage of confinement is calculated by forming the ratio of the fluorescein/protein concentrations.
In the case with XCL, the inventors incubated the protein (15 μM) with fluorescein (10 mM) and then separated the protein from the non-confined molecules of fluorescein by two successive gel filtration columns. Beforehand, the inventors verified that if these two columns on the fluorescein solution are carried out at 10 mM, no residual free fluorescein is detected. […]

Series [2] is described as follows: Thermal dissociation by tryptophan fluorescence. It counts as physicochemical. An excerpt: The thermal dissociation of XCL was followed by measuring the intrinsic fluorescence of the tryptophans. Each monomer of XCL contains 3 tryptophan residues: one in a hydrophobic cavity (Trp 77) and two located on the same interface between two monomers (Trp 27 and Trp 35). The inventors used these latter two Trp as probes for the quaternary structure of XCL, by taking advantage of their position in the structure of the tetramer. In order to increase the sensitivity of the measurement, the ratio of the fluorescence intensities 346 nm/330 nm was measured according to the temperature (FIG. 8).

Series [3] can be described thus: Thermal dissociation by NMR DOSY. It is filed as physicochemical. The method, then:
The thermal dissociation was also followed by DOSY experiments (Diffusion Ordered SpectrometrY). The ratio of the hydrodynamic radius of XCL and of the dioxane were measured according to the temperature (FIG. 9).
If the tetramer is dissociated by increasing the temperature, a decrease in this ratio is expected and therefore of the hydrodynamic radius of XCL. […] After 50° C., the protein sample precipitates out as already described in the fluorescence experiments with tryptophan.

Series [4] in a line: FRET on dilution, tetramer equilibrium. It counts as physicochemical. The method, then: The mixture of FITC-XCL and RITC-XCL was diluted to various concentrations and incubated for 1 hour at ambient temperature. The fluorescence spectrum was recorded with a light excitation at 468 nm. In order to substantially determine the decrease in the energy transfer and normalise the intensity of the fluorescence, a ratio I580/I520 was calculated for each concentration and taken according to the concentration in XCL (FIG. 4). […] Evidently, the titration curve is not complete as long as the saturation is not reached for the points with the strongest concentration. Due to the solubility limit of XCL and of the labelling protocol, the concentrations in protein cannot exceed 10 μM in this experiment.

B1: XCL: Xerocomus chrysenteron lectin, fungal sporocarp lectin forming a tetramer with central cavity, SEQ ID NO: 1 (protein)
chain: MSYSITLRVYQTNRDRGYFSIVEKTVWHFANGGTWSEANGAHTLTQGGSGTSGVLRFLSTKGERITVAVGVHNYKRWCDVVTGLKPDETALVINPQYYNNGGRDYVREKQLAEYSVTSAIGTKVEVVYTVAEGNNLEANVIFS
modifications: Xerocomus chrysenteron
B1: the “confinement rate after incubation” value in series [1] was “remained unchanged”. The “temperature before which no modification of the 346 nm/330 nm Trp fluorescence ratio was observed (lectin remained tetrameric)” value in series [2] was less than 50 °C. Also, in series [2] (precipitates in tetrameric form), the “temperature beyond which the protein precipitates out (visual analysis after heating)” value is more than 45 °C. In addition, the “temperature after which the protein sample precipitates out” value in series [3] (DOSY) is more than 50 °C. In addition, in series [3] (ratio of hydrodynamic radius of XCL and dioxane), the “hydrodynamic radius versus temperature” value is “no transition in the hydrodynamic radius is observed”. Also, the “concentration of the transition in energy transfer intensity (I580/I520)” value in series [4] (1 hour at ambient temperature) was “close to the micromolar”. Further, the “maximum protein concentration (solubility limit and labelling protocol)” value in series [4] (labelled XCL in FRET experiment) was not above 10 µM.
